Experimental findings from IntAct's records for PubMed 11375976 are described below.

The target of the assay is TERF1, P54274-2.
TERF1, P54274-2, sequence (P54274 other isoform, or with tags, fused parts or gaps): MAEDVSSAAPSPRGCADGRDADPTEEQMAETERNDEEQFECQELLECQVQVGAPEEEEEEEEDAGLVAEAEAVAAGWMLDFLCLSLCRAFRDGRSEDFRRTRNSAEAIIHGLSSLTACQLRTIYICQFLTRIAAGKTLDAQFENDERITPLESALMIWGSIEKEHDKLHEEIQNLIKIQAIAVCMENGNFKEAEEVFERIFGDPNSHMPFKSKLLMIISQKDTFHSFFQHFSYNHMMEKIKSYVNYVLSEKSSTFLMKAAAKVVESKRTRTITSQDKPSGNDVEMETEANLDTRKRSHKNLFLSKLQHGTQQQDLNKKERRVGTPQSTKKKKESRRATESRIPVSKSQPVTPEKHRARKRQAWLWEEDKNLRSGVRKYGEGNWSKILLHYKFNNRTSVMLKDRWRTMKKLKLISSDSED

“Serine-protein kinase ATM (Homo sapiens), Q13315 D2870A;N2875K”: the “effect of a mutation on the interaction” value was “disrupting interaction”.
